Measurements from patent US20220411483A1 (Chugai, published 2022).
Positions count from the first letter of the chain named. Each block holds one binder with its values, some of them ahead of it.

Tests used:
FcgRIIb = molecular target: T1, FcgRIIb (human, UniProt P31994 43-217); experiment: SPR, amount bound per captured antibody
T1 construct: extracellular domain; also called FcγRIIb
T1 sequence (looked up): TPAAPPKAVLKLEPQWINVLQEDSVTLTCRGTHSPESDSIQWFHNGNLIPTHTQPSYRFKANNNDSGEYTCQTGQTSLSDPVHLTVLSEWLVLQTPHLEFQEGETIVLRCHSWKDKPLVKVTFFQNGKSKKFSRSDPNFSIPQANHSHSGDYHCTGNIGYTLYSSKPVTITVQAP

FcgRIIaR = molecular target: T2, FcgRIIaR (human, UniProt P12318 34-217); experiment: SPR, amount bound per captured antibody
T2 construct: extracellular domain; also called FcγRIIa R type; FcγRIIa (R type)
T2 sequence (looked up): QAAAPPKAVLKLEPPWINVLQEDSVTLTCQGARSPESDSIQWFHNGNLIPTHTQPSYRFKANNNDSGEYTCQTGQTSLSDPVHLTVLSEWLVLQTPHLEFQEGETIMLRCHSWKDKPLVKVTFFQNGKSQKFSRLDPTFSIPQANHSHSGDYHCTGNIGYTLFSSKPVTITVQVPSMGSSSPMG

human complement C1q = molecular target: T3, human complement C1q (human, UniProt P02745 23-245; P02746 28-253; P02747 29-245); experiment: SPR, C1q bound per antibody captured on Protein L
T3 construct: Bought (PROSPEC or Calbiochem); also called human C1q
Procedure: The interaction between an antibody and human C1q was analyzed using Biacore T200 (GE Healthcare). HBS-EP+ (GE Healthcare) was used as the running buffer, and the measurement temperature was set at 25° C. Chips produced by immobilizing Protein L (ACTIGEN or BioVision) onto Series S sensor Chip CM4 (GE Healthcare) by amine coupling were used.
The antibodies of interest were captured onto these sensor chips, and allowed to interact with human complement C1q (PROSPEC or Calbiochem) diluted in the running buffer. The amount of antibody binding was determined, and comparisons were made among the antibodies. However, since the amount of C1q bound depends on the amount of captured antibodies, corrected values obtained by dividing the amount of C1q bound by the amount of each antibody captured were compared. Furthermore, by reaction with 10 mM glycine-HCl, pH 1.5, the antibodies captured onto the sensor chips were washed, and the sensor chips were recycled and reused.

[1] = molecular target: T4, human FcγRIa extracellular domain with C-terminal His tag (human, UniProt P12314 16-292); experiment: SPR, KD of IL6R-G1d/IL6R-L divided by KD of variant
T4 construct: Whole entry named; also called FcgRIa

[2] = molecular target: T5, human FcγRIIa H type extracellular domain with C-terminal His tag (human, UniProt P12318 34-217); experiment: as above
T5 construct: extracellular domain; also called FcgRIIaH
T5 sequence (looked up): T2 sequence (looked up) with R134H

[3] = molecular target: T6, human FcγRIIIa V type extracellular domain with C-terminal His tag (human, UniProt P08637 17-208); experiment: as above
T6 construct: extracellular domain; also called FcgRIIIaV

[4] = molecular target: T7, human FcγRIIb extracellular domain with C-terminal His tag (human, UniProt P31994 43-217); experiment: as above
T7 construct: extracellular domain; also called FcgRIIb
T7 sequence (looked up): T1 sequence (looked up)

[5] = molecular target: T8, human FcγRIIa R type extracellular domain with C-terminal His tag (human, UniProt P12318 34-217); experiment: as above
T8 construct: extracellular domain; also called FcgRIIaR
T8 sequence (looked up): T2 sequence (looked up)

[6] = molecular target: T4, human FcγRIa extracellular domain with …; experiment: SPR, antibody captured, FcgR analyte
[7] = molecular target: T7, human FcγRIIb extracellular domain with …; experiment: SPR, antibody captured, FcgR analyte
[8] = molecular target: T8, human FcγRIIa R type extracellular …; experiment: SPR, antibody captured, FcgR analyte

T4 sequence (P12314 16-292): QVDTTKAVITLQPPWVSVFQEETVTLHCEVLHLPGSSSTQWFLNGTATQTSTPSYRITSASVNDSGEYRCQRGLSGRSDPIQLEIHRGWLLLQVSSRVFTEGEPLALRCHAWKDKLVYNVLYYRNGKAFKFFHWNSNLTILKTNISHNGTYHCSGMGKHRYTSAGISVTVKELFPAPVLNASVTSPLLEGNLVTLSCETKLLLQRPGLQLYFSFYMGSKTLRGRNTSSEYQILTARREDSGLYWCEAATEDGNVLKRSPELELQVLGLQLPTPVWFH
T3 sequence (P02745 23-245 limits assumed, chain 1 of 3): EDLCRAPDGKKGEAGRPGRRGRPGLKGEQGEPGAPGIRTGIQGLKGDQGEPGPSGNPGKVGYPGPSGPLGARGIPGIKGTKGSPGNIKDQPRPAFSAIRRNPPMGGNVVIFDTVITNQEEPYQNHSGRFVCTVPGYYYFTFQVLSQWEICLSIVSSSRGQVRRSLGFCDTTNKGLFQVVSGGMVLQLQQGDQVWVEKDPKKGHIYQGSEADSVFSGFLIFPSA
T3 sequence (P02746 28-253 limits assumed, chain 2 of 3): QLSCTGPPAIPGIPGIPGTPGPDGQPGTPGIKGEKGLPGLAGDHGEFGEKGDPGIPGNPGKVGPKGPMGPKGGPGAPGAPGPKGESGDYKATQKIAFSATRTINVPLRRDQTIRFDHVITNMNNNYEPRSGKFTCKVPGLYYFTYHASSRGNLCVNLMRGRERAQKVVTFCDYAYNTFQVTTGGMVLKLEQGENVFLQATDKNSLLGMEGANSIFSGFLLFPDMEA
T3 sequence (P02747 29-245 limits assumed, chain 3 of 3): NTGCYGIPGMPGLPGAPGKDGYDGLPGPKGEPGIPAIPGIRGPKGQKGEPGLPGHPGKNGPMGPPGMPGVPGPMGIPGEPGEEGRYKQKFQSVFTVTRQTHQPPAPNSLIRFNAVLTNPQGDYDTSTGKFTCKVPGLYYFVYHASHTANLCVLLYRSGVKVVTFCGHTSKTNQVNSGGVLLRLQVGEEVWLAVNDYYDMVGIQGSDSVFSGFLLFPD
T6 sequence (P08637 17-208 F176V): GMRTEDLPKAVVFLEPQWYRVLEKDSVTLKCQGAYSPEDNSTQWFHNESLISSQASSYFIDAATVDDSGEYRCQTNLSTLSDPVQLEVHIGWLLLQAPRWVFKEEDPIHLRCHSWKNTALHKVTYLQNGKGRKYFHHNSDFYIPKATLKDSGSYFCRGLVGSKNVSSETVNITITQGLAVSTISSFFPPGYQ

Relative FcgRIIb-binding Activity (FcgRIIb): 196 IL6R-G1d/IL6R-L=100
Relative FcgRIIaR-binding Activity (FcgRIIaR): 86.7 IL6R-G1d/IL6R-L=100
Amount of C1q-binding when that for G1d is Defined as 100 (human complement C1q): 31.3 G1d=100
B1: IL6R-P769/IL6R-L (antibody, human IgG1, kappa)
heavy: QVQLQESGPGLVKPSETLSLTCAVSGHSISHDHAWSWVRQPPGEGLEWIGFISYSGITNYNPSLQGRVTISRDNSKNTLYLQMNSLRAEDTAVYYCARSLARTTAMDYWGEGTLVTVSSASTKGPSVFPLAPSSKSTSGGTAALGCLVKDYFPEPVTVSWNSGALTSGVHTFPAVLQSSGLYSLSSVVTVPSSSLGTQTYICNVNHKPSNTKVDKKVEPKSCDKTHTCPPCPAPELLGGDSVFLFPPKPKDTLMISRTPEVTCVVIDVSHEDGEVKFNWYVDGVEVHNAKTKPREEQYNSTYRVVSVLTVLHQDWLNGKEYKCKVSNKALPAPIEKTISKAKGQPREPQVYTLPPSRDELTKNQVSLTCLVKGFYPSDIAVEWESNGQPENNYKTTPPVLDSDGSFFLYSKLTVDKSRWQQGNVFSCSVMHEALHNHYTQKSLSLSP
light: not shown

Relative FcgRIIb-binding Activity (FcgRIIb): 188 IL6R-G1d/IL6R-L=100
Relative FcgRIIaR-binding Activity (FcgRIIaR): 78.2 IL6R-G1d/IL6R-L=100
Amount of C1q-binding when that for G1d is Defined as 100 (human complement C1q): 1.5 G1d=100
B2: IL6R-P770/IL6R-L (antibody, human IgG1, kappa)
heavy: B1 heavy with A329G, A332S, P333S
light: not shown

Relative FcgRIa-binding Activity [1]: 0.014
Relative FcgRIIaH-binding Activity [2]: 0.007
Relative FcgRIIIaV-binding Activity [3]: 0.009
Relative FcgRIIb-binding Activity [4]: 0.3
Relative FcgRIIaR-binding Activity [5]: 0.01
Kd [6]: 23 nM
Kd [7]: 7900 nM
B3: IL6R-P785/IL6R-L (antibody, human IgG1, kappa)
heavy: B1 heavy with E235D, I266V, G273P, S300A, A329G, A332S, P333S
light: not shown

Relative FcgRIa-binding Activity [1]: 0.029
Relative FcgRIIaH-binding Activity [2]: 0.021
Relative FcgRIIIaV-binding Activity [3]: 0.009
Relative FcgRIIb-binding Activity [4]: 10
Relative FcgRIIaR-binding Activity [5]: 0.39
Kd [6]: 11 nM
Kd [7]: 210 nM
Kd [8]: 2800 nM
B4: IL6R-P555/IL6R-L (antibody, human IgG1, kappa)
heavy: B1 heavy with G239D, I266V, H270D
light: not shown

Relative FcgRIIb-binding Activity (FcgRIIb): 84 IL6R-G1d/IL6R-L=100
Relative FcgRIIaR-binding Activity (FcgRIIaR): 14.7 IL6R-G1d/IL6R-L=100
Amount of C1q-binding when that for G1d is Defined as 100 (human complement C1q): 24 G1d=100
B5: IL6R-P787/IL6R-L (antibody, human IgG1, kappa)
heavy: B1 heavy with E235D, G239D, I266V, G273P, S300A, A329G, A332S, P333S
light: not shown

Relative FcgRIIb-binding Activity (FcgRIIb): 97.9 IL6R-G1d/IL6R-L=100
Relative FcgRIIaR-binding Activity (FcgRIIaR): 20.5 IL6R-G1d/IL6R-L=100
Amount of C1q-binding when that for G1d is Defined as 100 (human complement C1q): 13.3 G1d=100
B6: IL6R-P783/IL6R-L (antibody, human IgG1, kappa)
heavy: B1 heavy with G239D, I266V, G273P, A329G, A332S, P333S
light: not shown

Relative FcgRIIb-binding Activity (FcgRIIb): 195 IL6R-G1d/IL6R-L=100
Relative FcgRIIaR-binding Activity (FcgRIIaR): 75.8 IL6R-G1d/IL6R-L=100
Amount of C1q-binding when that for G1d is Defined as 100 (human complement C1q): 14.3 G1d=100
B7: IL6R-P771/IL6R-L (antibody, human IgG1, kappa)
heavy: B1 heavy with K324A
light: not shown

Relative FcgRIIb-binding Activity (FcgRIIb): 58.4 IL6R-G1d/IL6R-L=100
Relative FcgRIIaR-binding Activity (FcgRIIaR): 9.1 IL6R-G1d/IL6R-L=100
Amount of C1q-binding when that for G1d is Defined as 100 (human complement C1q): 1.3 G1d=100
B8: IL6R-P785/IL6R-L (antibody, human IgG1, kappa)
heavy: B1 heavy with E235D, I266V, G273P, S300A, A329G, A332S, P333S
light: not shown

Relative FcgRIIb-binding Activity (FcgRIIb): 62.4 IL6R-G1d/IL6R-L=100
Relative FcgRIIaR-binding Activity (FcgRIIaR): 11.5 IL6R-G1d/IL6R-L=100
Amount of C1q-binding when that for G1d is Defined as 100 (human complement C1q): 12.9 G1d=100
B9: IL6R-P786/IL6R-L (antibody, human IgG1, kappa)
heavy: B1 heavy with G239D, I266V, G273P, S300A, A329G, A332S, P333S
light: not shown

Relative FcgRIIb-binding Activity (FcgRIIb): 200 IL6R-G1d/IL6R-L=100
Relative FcgRIIaR-binding Activity (FcgRIIaR): 101 IL6R-G1d/IL6R-L=100
Amount of C1q-binding when that for G1d is Defined as 100 (human complement C1q): 12.9 G1d=100
B10: IL6R-P780/IL6R-L (antibody, human IgG1, kappa)
heavy: B1 heavy with S269A, H270E, K324E
light: not shown

Relative FcgRIIb-binding Activity (FcgRIIb): 201 IL6R-G1d/IL6R-L=100
Relative FcgRIIaR-binding Activity (FcgRIIaR): 96 IL6R-G1d/IL6R-L=100
Amount of C1q-binding when that for G1d is Defined as 100 (human complement C1q): 0.8 G1d=100
B11: IL6R-P779/IL6R-L (antibody, human IgG1, kappa)
heavy: B1 heavy with S269A, H270E, K324A
light: not shown
